# The supplement of paper PMC9732359
# ± gives the uncertainty stated by the source.
# Test: protein stability index of a GFP-peptide fusion (yeast GPS) (PSI 1-4); higher = more stable; sorted into four equal gates, so the index is relative within each strain
# Conditions: ubr1∆
# Summary of the method: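 The protein stability index of a peptide was calculated by multiplying its read frequency in each gate by that gate's number and adding the products. The peptides were tiled 17-residue stretches of yeast proteins, fused downstream of GFP on a Cherry-expressing plasmid and carried in yeast as a pooled library. Mid-log cultures in leucine-free medium were sorted into four equal gates by GFP/Cherry ratio, and each gate's plasmids were PCR-amplified and Illumina-sequenced.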
row,Sequence,protein stability index
1,STYLPKLISAFDDLEVE [RRP42],2.74 ± 0.032
2,SVILSVISMFVLPIFTT [YML031W/NDC1],1.93 ± 0.043
3,SVINVSAQRDRRYRKRV [RPS17A],2.06 ± 0.08
4,SVISGNLSLYEATAASH [CSN12],2.7 ± 0.057
5,SVKGKVVIDAFRLIDTG [RPN11],1.79 ± 0.061
6,SVLDEQEQYQTNTFEGS [SNU114],3.31 ± 0.071
7,SVPEGTIVSNVEEKPGD [RPL2A],3.39 ± 0.11
8,SVSFKVFLLLQAYFSRL [BRR2],1.42 ± 0.051
9,SVSGSPRPSYSSRPNVN [YMR129W/POM152],2.77 ± 0.081
10,SVVAKQLLNGQKIVVVR [RPL16A],1.24 ± 0.057
11,SVVRVLVHTQIRKTPLA [RPL3],1.54 ± 0.046
12,SWVQPRIISGDQITKMK [RPN9],3.56 ± 0.2
13,SYAGKQVVGPFHTSFSA [SMC4],3.13 ± 0.049
14,SYDCTGVNELAPIPKGR [POP1],3 ± 0.042
15,SYKMNSSAADITMESVH [PRP8],3.17 ± 0.067
16,SYLSNSLDTSASTINGA [YML103C/NUP188],1.84 ± 0.06
17,SYNLEYIESKFCPGEIV [YMR129W/POM152],3.21 ± 0.096
18,SYNNTGISDDENDEEDI [RRP4],2.96 ± 0.099
19,SYVEPVLVASAKGLQTV [RPL31A],2.22 ± 0.082
20,TAAEKKERLTKEAAAVA [RPL8A],2.89 ± 0.15
21,TAAFTAMICEAKGLIEN [YJR042W/NUP85],2.94 ± 0.052
22,TADAEILINTARIHAQN [PRE9],2.96 ± 0.072
23,TADKIRIHAKNFEAALF [GAL11],2.29 ± 0.055
24,TAEERVGRRAANLRVLN [RPL15A],2.92 ± 0.11
25,TAETNNKVHETSSKSSS [YDL088C/ASM4],2.89 ± 0.032
26,TAFQTQRTAQDRVQQDS [YML031W/NDC1],2.35 ± 0.079
27,TAKKTNRSAYDSKNTPN [YDL088C/ASM4],2.9 ± 0.084

row,Sequence,protein stability index
1,TALEHKVVNGNSADAAY [FAS2],3.13 ± 0.06
2,TANDQYSSILGNSFNKS [YCG1],3.46 ± 0.058
3,TANDRQINNVHLIPNEI [RPN4],2.94 ± 0.055
4,TANTGTIGKRRTTTNTT [TAF14],3.19 ± 0.062
5,TCRKHTQHKVTQYKAGK [RPL42A],2.91 ± 0.088
6,TDEALFENVKLLAEYDN [MED4],2.87 ± 0.073
7,TDENTPSADGADKKDDS [ITC1],2.98 ± 0.061
8,TDLGKDIPFFPSSEKPN [SSN2],3.07 ± 0.037
9,TDSDFAKYHAKLNKKLQ [SRP68],3 ± 0.05
10,TDVKLTLPQPRLNKLNS [SMD1],2.73 ± 0.059
11,TEDGWIYHGNHDVGELF [PRE2],2.33 ± 0.043
12,TEDIRIRAQNFKSALAN [RRP6],2.73 ± 0.053
13,TEGHKGHEELKRRIEEE [ISW2],3.23 ± 0.065
14,TEHVRQNAKLLANLIRD [RRP6],1.62 ± 0.086
15,TEIENYLLENNQVGTDE [YDL116W/NUP84],2.84 ± 0.098
16,TEIISTLSNGLIASHYG [BRR2],2.33 ± 0.062
17,TEISGLKNVNKRAFENF [SMC3],2.96 ± 0.057
18,TEKEPVPAVVDDPLENM [SNF6],2.88 ± 0.068
19,TELTHHLLPRNEWIKAQ [QCR7],1.85 ± 0.046
20,TESPLKTVDSSIQPIES [SSN2],2.93 ± 0.03
21,TETFEKPQRTNTLRMKH [RPB2],3.05 ± 0.12
22,TEVSRKSMKYVKKILPL [ECM29],1.18 ± 0.16
23,TEYRGTLVSTDNYFNLQ [SMX3],2.23 ± 0.041
24,TFGINLIYVNPFMLQWG [FAS1],2.4 ± 0.051
25,TFGKKADVTSNIDSSAQ [YOR098C/NUP1],2.57 ± 0.038
26,TFIKDCLFTKCLEDPEK [POP4],1.83 ± 0.061
27,TFIYFAYFLIIVPVIST [COB],1.1 ± 0.027

row,Sequence,protein stability index
1,TFLPPLLLKLASPHASV [ECM29],1.41 ± 0.027
2,TGAGVSTSLGIPDFRSS [SIR2],2.86 ± 0.078
3,TGAPPYYYNTKIYKLEN [YMR129W/POM152],3.17 ± 0.041
4,TGDADEPELRVLSTEEI [RPO21],3.43 ± 0.06
5,TGLKLYSRITLIIDDPS [RPP1],2.75 ± 0.086
6,TGNGTTTTSNTSGTNIA [YOR098C/NUP1],2.41 ± 0.035
7,TGNTTSKSAFSFGTANT [YOR098C/NUP1],2.75 ± 0.056
8,TGQNFLTSNISSLVRSC [REC8],2.96 ± 0.091
9,TGRMRYLKHVSRRFKNG [RPL37A],3.38 ± 0.047
10,TGSDREVQRILIELLTQ [RPT3],3.5 ± 0.23
11,TGTARLNSMPNNVNEYS [YJL039C/NUP192],2.89 ± 0.056
12,THKVTDIYSHEYKVITS [YMR129W/POM152],2.13 ± 0.064
13,THQSPPPPPQQSQPIAN [SNF5],2.94 ± 0.046
14,THSYNFMRQNLEWNMAN [RPC82],2.24 ± 0.048
15,TIDWVEAGLQLCRQGHN [PRP8],2.26 ± 0.085
16,TIETFNEAALVVNITHH [RPB5],1.58 ± 0.13
17,TIFKSGEIDFIKNIGKS [YML103C/NUP188],2.51 ± 0.073
18,TIKISTNDDSIKNLTVQ [RGR1],2.96 ± 0.14
19,TISSLFVQLCEMGYLIQ [RPC82],2.39 ± 0.081
20,TITDLIEQGIPKHSYLS [SIR4],3.17 ± 0.043
21,TIVNDSNYDWLFQLLNA [RPN9],2.61 ± 0.048
22,TKCSTVVKASELDQFWQ [SRP14],1.72 ± 0.03
23,TKEKVNGASVPINLHPS [RPL26A],2.93 ± 0.064
24,TKENGDFTLPEDFAPLL [PRP8],3.2 ± 0.1
25,TKESQPTIEEDLTRVYK [FAS2],3.48 ± 0.091
26,TKFQTTDRESYPRLQDP [YCS4],3.05 ± 0.074
27,TKIGAKRIHSVRTRGGN [RPS8A],2.72 ± 0.12

row,Sequence,protein stability index
1,TKIPQIGDKFASRHGQK [RPB2],1.83 ± 0.039
2,TKNGTPNPNNMKTVQSP [GAL11],2.91 ± 0.066
3,TKNLSILTSKVNAIKNE [DSN1],1.69 ± 0.06
4,TKPGVYYVPYSKLMPVL [RPC82],1.96 ± 0.09
5,TKSHNTVQSWLCDLFVN [NUT1],1.54 ± 0.037
6,TKSMVKIAEQYSKRIEE [RPN11],2.28 ± 0.067
7,TLAEVKAAGLTAAYART [RPL13A],1.54 ± 0.061
8,TLDKPNAEATKEEFSSA [CSE2],3.13 ± 0.069
9,TLDRNTAAETFKLFNKY [RPL8A],2.94 ± 0.066
10,TLELESFLEGSKALNSI [RGR1],2.9 ± 0.078
11,TLIKKKQDEKKSSELEL [SMC2],3.05 ± 0.046
12,TLIVNTDVEKSDPAAKK [SRP21],3.7 ± 0.16
13,TLKDYQIKGLQWMVSLF [SNF2],2.76 ± 0.1
14,TLKLRARQRGKLKKSEE [SRP68],3.67 ± 0.21
15,TLLARAVAHHTDCKFIR [RPT6],2.23 ± 0.15
16,TLLESNLCKIIEPFECV [RPN6],2.88 ± 0.16
17,TLLNFVSNNVLRRLEIL [ECM29],2.48 ± 0.12
18,TLQDIGFYQIKKIVDSK [YMR129W/POM152],2.97 ± 0.12
19,TLTELKDALSNSILSVR [SRB2],3.37 ± 0.09
20,TMEVKSFPILDQCVGQV [YMR129W/POM152],2.69 ± 0.06
21,TNAKLPNVDLVTALEVL [RGR1],2.26 ± 0.061
22,TNDRLNREAATKEVESN [DIS3],3.1 ± 0.1
23,TNRHTLALETVLIKMVK [SIR3],2.88 ± 0.054
24,TNSPQISVTRQVVLGGT [SMC2],2.67 ± 0.048
